Laboratory results taken from article PMC5784979, “Direct comparison of the four aldehyde oxidase enzymes present in mouse gives insight into their substrate specificities” (PLoS ONE, 2018).

Columns and labels:
Experiment in all cases: purified protein
Conditions in all cases: 100 μM DCPIP as electron acceptor, 50 mM Tris-HCl, 1 mM EDTA, pH 8.0, 37°C, corrected to 100% Mo saturation
purified protein [1] = substrate: COc1ccccc1C=O; type: biochemical, Mus musculus
purified protein [2] = substrate: c1ncc2[nH]cnc2n1; type: biochemical, Mus musculus
purified protein [3] = substrate: CC=O; type: biochemical, Mus musculus
purified protein [4] = substrate: c1ccc2c(c1)cnc1ccccc12
purified protein [5] = substrate: O=Cc1ccccc1; type: biochemical, Mus musculus
purified protein [6] = substrate: O=Cc1ccccc1O; type: biochemical, Mus musculus
purified protein [7] = substrate: c1ccc2cnncc2c1; type: biochemical, Mus musculus
purified protein [8] = substrate: CCCCC=O; type: biochemical, Mus musculus

B1: mAOX1 (Mus musculus) (protein)
chain: MDPIQLLFYVNGQKVVEKNVDPEMMLLPYLRKNLRLTGTKYGCGGGGCGACTVMISRYNPSTKAIRHHPVNACLTPICSLHGTAVTTVEGLGNTRTRLHPIQERIAKCHGTQCGFCTPGMVMSMYALLRNHPEPTLDQLTDALGGNLCRCTGYRPIIDACKTFCKASACCQSKENGVCCLDQEINGLAESQEEDKTSPELFSEEEFLPLDPTQELIFPPELMRIAEKQPPKTRVFYGERVTWISPVTLKELVEAKFKYPQAPIVMGYTSVGPEVKFKGVFHPIIISPDRIEELGVISQARDGLTLGAGLSLDQVKDILADIVQKLPEEKTQTYRALLKHLRTLAGSQIRNMASLGGHIVSRHLDSDLNPLLAVGNCTLNLLSKDGERRIPLSEEFLRKCPEADLKPQEVLVSVNIPWSRKWEFVSAFRQAQRQQNALAIVNSGMRVLFREGGGVIEELSILYGGVGSTIISAKNSCQRLIGRPWNEGMLDTRCRLVLDEVTLAASAPGGKVEFKRTLIISFLFKFYLEVSQGLKREDPGHSPSLAGNHESALDDLHSKHPWRTLTHQNVDPAQLPQDPIGRPIMHLSGIKHATGEAIYCDDMPAVDRELFLTFVTSSRAHAKIVSIDLSEALSLPGVVDIITADHLQEANTFGTETFLATDEVHCVGHLVCAVIADSETRAKQAAKQVKVVYQDLAPLILTIEEAIQHKSFFKSERKLECGNVDEAFKIVDQILEGEIHIGGQEHFYMETQSMLVVPKGEDGEIDIYVSTQFPKYIQDIVAATLKLSANKVMCHVRRVGGAFGGKVGKTSILAAITAFAASKHGRAVRCILERGEDMLITGGRHPYLGKYKAGFMNEGRILALDVEHYCNGGCSLDESLWVIEMGLLKLDNAYKFPNLRCRGWACRTNLPSNTALRGFGFPQAGLVTEACITEVAIKCGLSPEQVRTINMYKHVDTTHYKQEFSAKALSECWRECMAKCSYFERKAAIGKFNAENSWKKRGMAVIPLKFPVGIGSVAMGQAAALVHIYLDGSALVSHGGIEMGQGVHTKMIQVVSRELRMPMSSVHLRGTSTETVPNTNASGGSVVADLNGLAVKDACQTLLKRLEPIISKNPQGTWKDWAQTAFDQSISLSAVGYFRGYESNIDWEKGEGHPFEYFVFGAACSEVEINCLTGDHKNIRTNIVMDVGHSINPALDIGQVEGAFIQGMGLYTIEELSYSPQGTLYSRGPNQYKIPAICDIPTEMHISFLPPSEHSNTLYSSKGLGESGVFLGCSVFFAIHDAVKAARQERGISGPWKLNSPLTPEKIRMACEDKFTKMIPRDEPGSYVPCNIPV
notes: recombinant from E. coli TP1000 (codon-optimized plasmid pMAOX1co), Ni-NTA and Superdex 200 purified, chemically sulfurated, dimer (300 kDa)
Question: For B1, which Km (purified protein [1]) is on record?
Answer: 6.6 ± 1.5 µM

Question: And the kcat (purified protein [1])?
Answer: 6.885 ± 0.362 s⁻¹

Question: And the Km (purified protein [2])?
Answer: 9028 ± 971 µM

Question: What about the kcat (purified protein [2]) of the same protein?
Answer: 7.147 ± 0.29 s⁻¹

Question: What about the Km (purified protein [3]) of the same protein?
Answer: 18000 µM

Question: And the Km (purified protein [4])?
Answer: 2.5 ± 1.1 µM

Question: And the kcat (purified protein [4])?
Answer: 2.013 ± 0.277 s⁻¹

B2: mAOX3 (Mus musculus) (protein)
chain: MSPSKESDELIFFVNGKKVTERNADPEVNLLFYLRKVIRLTGTKYGCGGGDCGACTVMISRYDPISKRISHFSATACLVPICSLHGAAVTTVEGIGSTKTRIHPVQERIAKGHGTQCGFCTPGMVMSIYTLLRNHPEPSTEQIMETLGGNLCRCTGYRPIVESAKSFCPSSTCCQMNGEGKCCLDEEKNEPERKNSVCTKLYEKKEFQPLDPTQELIFPPELMRMAEESQNTVLTFRGERTTWIAPGTLNDLLELKMKHPSAPLVIGNTYLGLHMKFTDVSYPIIISPARILELFVVTNTKQGLTLGAGLSLTQVKNVLSDVVSRLPKEKTQIYCALLKQLKTLAGQQIRNVASLGGHIISRLPTSDLNPILGIGNCILNVASTEGIQQIPLNDHFLAGVPDAILKPEQVLISVFVPRSSKWEFVSAFRQAPRQQNAFATVNAGMKVVFKEDTNTITDLGILYGGIGATVISADKSCRQLIGRCWDEEMLDDAGKMICEEVSLLMAAPGGMEEYRKTLAISFLFMFYLDVLKQLKTRDPHKYPDISQKLLHILEDFPLTMPYGMQSFQDVDFQQPLQDPIGRPIMHQSGIKHATGEAVFCDDMSVLPGELFLAVVTSSKSHAKIISLDASEALASLGVVDVVTARDVPGDNGREEESLYAQDEVICVGQIVCAVAADSYAHAQQAAKKVKIVYQDIEPMIVTVQDALQYESFIGPERKLEQGNVEEAFQCADQILEGEVHLGGQEHFYMETQSVRVVPKGEDKEMDIYVSSQDAAFTQEMVARTLGIPKNRINCHVKRVGGAFGGKASKPGLLASVAAVAAQKTGRPIRFILERRDDMLITGGRHPLLGKYKIGFMNNGKIKAADIQLYINGGCTPDDSELVIEYALLKLENAYKIPNLRVRGRVCKTNLPSNTAFRGFGFPQGAFVTETCMSAVAAKCRLPPEKVRELNMYRTIDRTIHNQEFDPTNLLQCWEACVENSSYYNRKKAVDEFNQQRFWKKRGIAIIPMKFSVGFPKTFYYQAAALVQIYTDGSVLVAHGGVELGQGINTKMIQVASRELKIPMSYIHLDEMSTVTVPNTVTTGASTGADVNGRAVQNACQILMKRLEPIIKQNPSGTWEEWVKEAFVQSISLSATGYFRGYQADMDWEKGEGDIFPYFVFGAACSEVEIDCLTGAHKNIRTDIVMDGSFSINPAVDIGQIEGAFVQGLGLYTLEELKYSPEGVLYTRGPHQYKIASVTDIPEEFHVSLLTPTPNPKAIYSSKGLGEAGTFLGCSVFFAIAAAVAAAREERGLSPIWAINSPATAEVIRMACEDQFTNLVPQTDSKCCKPWSIPVA
notes: recombinant from E. coli TP1000 (plasmid pMMA1), Ni-NTA and Superdex 200 purified, chemically sulfurated, dimer (300 kDa)
Question: With B2 as the protein, how does the Km (purified protein [2]) read?
Answer: 3181 ± 334 µM

Question: And the kcat (purified protein [2])?
Answer: 7.862 ± 0.298 s⁻¹

Question: What about the Km (purified protein [5]) of the same protein?
Answer: 0.8 ± 0.1 µM

Question: And the kcat (purified protein [5])?
Answer: 2.512 ± 0.06 s⁻¹

Question: And the Km (purified protein [4])?
Answer: 10.8 ± 1.8 µM

Question: And the kcat (purified protein [4])?
Answer: 2.353 ± 0.0917 s⁻¹

B3: mAOX2 (Mus musculus) (protein)
chain: MPCPAQISDDLEFFVNGRKVTEKNVDPEVTLLAFLRKNLCLTGTKDACGTGGCGACTVMVSQHDPVCKKTRHFSVMACLVPLCSLHGAAVTTVEGVGSIKTRLHPVQERIAKSHGTQCGFCTPGMVMSIYTLLRNHPQPSEEQLMEALGGNLCRCTGYRPILESGRTFCMEPDGCPQKGTGQCCLDQKESDSSGSKSDICTKLFVKDEFQPLDPTQELIFPPELLRMAENPEKQTLTFYGERITWIAPGTLQELLVLKAKYPEAPLISGNTALGPAMKSQGHFYPVLLSPARIPDLRMVTKTSGGLTIGACCSLAQVKDILAESISELPQEKTQTYRALLKHLRSLAGQQIRNMASLGGHVISRHCYSDLNPILSVGNTTLNLLSEEGPRQIPLSGHFLAGLASADLKPEEILGSVYIPHSQKREFVSAFRQAQCHQNALPDVNAGMRVLFREGTDVIEELSIAYGGVGPTTVSAQRSCQQLLGRRWNALMLDEACRLLLDEVSLPGSALGGKVEFRRTLIVSLFFKFYLEVLQELKADQKLPPESTDSQRYPEIADRFLSSLGDFQVTLPRGVQTYQRVDSHQPLQDPVGRPIMHLSGLKHATGEAVFCDDIPRVDKELFMALVTSTRAHARIISIDSSEVLDLPGVVDVITAEDIPGNNGEEDDKLLAVDKVLCVGQVICAVVAETDVQAKRATEKIKITYEDLKPVIFTIEDAIKHNSFLCPEKKLEQGNIEEAFENVDQVAEGTVHVGGQEHFYMETQRVLVIPKTEDKELDMYVSTQDPAHVQKTVSSTLNIPISRITCHVKRVGGGFGGKVGRPAVFGAIAAVGAVKTGHPIRLVLDREDDMLITGGRHPLFAKYKVGFMNSGRIKALDIECYINGGCTLDDSELVTEFLVLKLENAYKIRNLRLRGRACMTNLPSNTAFRGFGFPQGALVTESCITAVAAKCGLPPEKIREKNMYKTVDKTIYKQAFNPDPLIRCWNECLDKSSFHIRRTRVDEFNKKSYWKKRGIAIVPMKFSVGFAATSYHQAAALVHIYTDGSVLVAHGGNELGQGIHTKMLQVASRELKIPLSYLHICETSTTTVPNTIATAASVGADVNGRAVQNACQILLKRLEPVIKKNPEGTWRDWIEAAFEKRISLSATGYFRGYKAFMDWEKGEGDPFPYYVYGAACSEVEIDCLTGAHKKIRTDIVMDACCSLNPAIDIGQIEGAFIQGMGLYTTEELLYSPEGVLYSRSPDKYKIPTVTDVPEQFNVSLLPSSQTPLTLYSSKGLGESGMFLGSSVFFAIVDAVAAARRQRDIAEDFTVKSPATPEWVRMACADRFTDMIPRDDPKTFKPWSIPIA
notes: recombinant from E. coli TP1000 (codon-optimized plasmid pMAOX2co), Ni-NTA and Superdex 200 purified, chemically sulfurated, dimer (300 kDa)
Question: B3 was tested. Which Km (purified protein [2]) did it give?
Answer: 298.4 µM

Question: And the Km (purified protein [4])?
Answer: 1.9 ± 0.3 µM

Question: And the kcat (purified protein [4])?
Answer: 1.962 ± 0.0817 s⁻¹

B4: mAOX4 (Mus musculus) (protein)
chain: MPSVSESDELIFFVNGKKVIEKNPDPEKNLLFYTRKVLNLTGTKYSCGTGGCGACTVMVSRYNPKTRKIHHYPATACLVPICWLHGAAITTVEGVGSIKKRVHPVQERLAKCHGTQCGFCSPGMVMSIYTLLRNHPEPTPDQITEALGGNLCRCTGYRPIVESGKTFSQKSTVCQMKGSGKCCMDPDEKCLESREKKMCTKLYNEDEFQPFDPSQEPIFPPELIRMAEDPNKRRLTFQGKRTTWIIPVTLNDLLELKASYPEAPLVMGNTTVGPGIKFNDEFYPVFISPLGVPELNLMDTTNNGVTIGAGYSLAQLKDTLDFLVSEQPKEKTKTFHALQKHLRTLAGPQIRNMATLGGHTASRPNFSDLNPILAAGNATINVVSREGKDRQLPLNGPFLEKLPEADLKPEEVILSIFIPYTAQWQFVSGLRLAQRQENAFAIVNAGMSVEFEEGTNTIKDLKMFFGSVAPTVVSASQTCKQLIGRQWDDQMLSDACQLVLQEIRIPPDAEGGMVEYRRTLIISLLFKFYLKVQRWLNEMDPQKFPDIPGKFVSALDDFPIETPQGIQMFQCVDPKQPQKDPVGHPIMHQSGIKHATGEAIFIDDMPPIDQELCLAVVTSTRAHAKITSLDVSEALACPGVVDVITAEDVPGENDHNGEILYAQSEVICVGQIICTVAADTYIHAKEAAKRVKIAYDDIEPTIITIEEALEHNSFLSPEKKIEQGNVDYAFKHVDQIVEGEIHVEGQEHFYMETQTILAIPQTEDKEMVLHLGTQFPTHVQEFVSAALNVPRSRIACHMKRAGGAFGGKVTKPALLGAVCAVAANKTGRPIRFILERSDDMLITAGRHPLLGKYKIGFMNNGEIRAADVEYYTNGGCTPDESELVIEFVVLKSENTYHIPNFRCRGRACKTNLPSNTAFRGFGFPQATVVVEAYIAAVASKCNLLPEEVREINMYKKTSKTAYKQTFNPEPLRRCWKECLEKSSFFARKKAAEEFNGNNYWKKRGLAVVPMKFSVAVPIAFYNQAAALVHIFLDGSVLLTHGGCELGQGLHTKMIQVASRELNVPKSYVHFSETSTTTVPNSAFTAGSMGADINGKAVQNACQILMDRLRPIIRKNPKGKWEEWIKMAFEESISLSATGYFKGYQTNMDWKKEEGDPYPYYVYGAACSEVEVDCLTGAHKLLRTDIFVDAAFSINPALDIGQVEGAFIQGMGFYTTEELKYSPKGVLYSRGPEDYKIPTITEIPEEFYVTLVHSRNPIAIYSSKGLGEAGMFLGSSVLFAIYDAVTTARKERGLSDIFPLNSPATPEVIRMACTDQFTEMIPRDDPSTFTPWSIHVS
notes: recombinant from E. coli TP1000 (plasmid pMAOX4), Ni-NTA and Superdex 200 purified, chemically sulfurated, dimer (300 kDa)
Question: With B4 as the protein, how does the Km (purified protein [6]) read?
Answer: 13.2 ± 2.4 µM

Question: And the kcat (purified protein [6])?
Answer: 3.42 ± 0.112 s⁻¹

Question: And the kcat/Km (purified protein [6])?
Answer: 260000 M⁻¹ s⁻¹

Question: And the Km (purified protein [2])?
Answer: 12344 µM

Question: And the Km (purified protein [7])?
Answer: 8.3 ± 0.9 µM

Question: What about the kcat (purified protein [7]) of the same protein?
Answer: 5.51 ± 0.142 s⁻¹

Question: And the kcat/Km (purified protein [7])?
Answer: 665000 M⁻¹ s⁻¹

Question: What about the Km (purified protein [8]) of the same protein?
Answer: 48.3 ± 8.7 µM

Question: What about the kcat (purified protein [8]) of the same protein?
Answer: 2.8 ± 0.22 s⁻¹

Question: What about the kcat/Km (purified protein [8]) of the same protein?
Answer: 58300 M⁻¹ s⁻¹

Question: What about the Km (purified protein [5]) of the same protein?
Answer: 2.2 ± 0.2 µM

Question: What about the kcat (purified protein [5]) of the same protein?
Answer: 1.52 ± 0.0383 s⁻¹

Question: And the kcat/Km (purified protein [5])?
Answer: 693000 M⁻¹ s⁻¹
